In patent publication US6703362 (CYTOGEN, dated 2004):
Where two headings read alike, the source gives them in different places.

Columns and labels:
[1] = molecular target: T1, hPEPT1 receptor domain (human PEPT1, amino acid residues 391-571), His-tag fusion protein (human, UniProt P46059 391-571); experiment: phage ELISA, plate coated with hPEPT1 domain
T1 construct: purified under denaturing conditions; also called recombinant hPEPT1; not shown: poly-histidine tag (pET vector) at the NH2-terminal end
T1 sequence: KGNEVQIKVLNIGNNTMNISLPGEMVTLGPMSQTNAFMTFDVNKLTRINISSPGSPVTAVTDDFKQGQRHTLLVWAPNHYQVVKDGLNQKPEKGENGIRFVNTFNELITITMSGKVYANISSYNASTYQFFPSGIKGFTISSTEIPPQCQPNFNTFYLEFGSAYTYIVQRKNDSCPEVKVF

[2] = molecular target: T1, hPEPT1 receptor domain (human PEPT1, …); experiment: phage ELISA, OD on hPEPT1 over OD on BSA
Description: (§1) 6.6. Receptor ELISA Procedure 96 well plates were coated overnight with GIT receptor, BSA and, optionally, IDE (insulin degrading enzyme, an irrelevant His-fusion protein)or hTF. The plates were blocked for one hour with 0.5% BSA-PBS. After clarification, the amplified phage were diluted 1:100 in […] plus 0.05% Tween 20 in PBS and added to the plates. Following incubation of the plates on a rotator for 1 to 2 hours, the plates were washed 5 times with 1% BSA plus 0.05% Tween 20 in PBS. […] After the plates were washed 5 times, as described above, TMB substrate was added to the wells. The plates were read at 650 nm absorbance.

[3] = molecular target: T2, D2H receptor domain (human D2H transporter, amino acid residues 387-685), His-tag fusion protein (human, UniProt Q07837 387-685); experiment: phage ELISA, plate coated with D2H domain
T2 construct: purified under denaturing conditions; also called recombinant D2H; not shown: poly-histidine tag (pET vector) at the NH2-terminal end
T2 sequence: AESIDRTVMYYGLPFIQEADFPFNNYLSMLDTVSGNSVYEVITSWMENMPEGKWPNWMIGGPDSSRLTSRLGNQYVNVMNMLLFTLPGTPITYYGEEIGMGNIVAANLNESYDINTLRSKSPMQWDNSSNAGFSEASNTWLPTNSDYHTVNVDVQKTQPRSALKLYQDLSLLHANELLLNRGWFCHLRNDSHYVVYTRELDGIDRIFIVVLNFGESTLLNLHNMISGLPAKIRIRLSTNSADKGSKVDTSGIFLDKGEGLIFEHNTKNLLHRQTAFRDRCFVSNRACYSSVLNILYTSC
Description: as §1
(§2) Binding to fixed Caco-2 cells, D2H and BSA was examined.

[4] = molecular target: T2, D2H receptor domain (human D2H …); experiment: phage ELISA, OD on D2H over OD on BSA
Description: as §1, §2

[5] = molecular target: T2, D2H receptor domain (human D2H …); experiment: phage ELISA, OD on D2H over OD on BSA; remark: listed apart in the source
Description: as §1

[6] = molecular target: T2, D2H receptor domain (human D2H …); experiment: phage ELISA, plate coated with D2H domain; remark: listed apart in the source
Description: as §1

[7] = molecular target: T3, HPT1 receptor domain (human intestinal peptide-associated transporter HPT1, amino acid residues 29-273), … (human, UniProt Q12864 29-273); experiment: phage ELISA, plate coated with HPT1 domain
T3 construct: purified under denaturing conditions; also called recombinant HPT1; not shown: poly-histidine tag (pET vector) at the NH2-terminal end
T3 sequence: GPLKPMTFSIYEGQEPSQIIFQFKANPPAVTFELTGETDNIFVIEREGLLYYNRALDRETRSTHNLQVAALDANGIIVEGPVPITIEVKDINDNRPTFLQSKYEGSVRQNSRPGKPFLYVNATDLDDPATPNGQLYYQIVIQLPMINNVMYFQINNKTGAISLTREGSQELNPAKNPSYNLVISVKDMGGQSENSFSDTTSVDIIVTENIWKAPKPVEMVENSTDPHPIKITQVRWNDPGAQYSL
Description: as §1

[8] = molecular target: T3, HPT1 receptor domain (human intestinal …); experiment: phage ELISA, OD on HPT1 over OD on BSA
Description: as §1

B1: 5PAX5 (peptide)
peptide: RGSTGTAGGERSGVLNLHTRDNASGSGFKPWYPSNRGHKAETVESCLAKPHTENSFTNVWKDDKTLDRYANYEGCLWNATGVVVCTGDETQCYGTWVPIGLAIPENEGGGSEGGGSEGGGSEGGGTKPPEYGDTPIPGYTYINPLDGTYPPGTEQNPANPNPSLEESQPLNTFMFQNNRFRNRQGALTVYTGTVTQGTDPVKTYYQYTPVSSKAMYDAYWNGKFRDCAFHSGFNEDPFVCEYQGQSSDLPQPPVNAGGGSGGGSGGGSEGGGSEGGGSEGGGSEGGGSGGGSGSGDFDYEKMANANKGAMTENADENALQSDAKGKLDSVATDYGAAIDGFIGDVSGLANGNGATGDFAGSNSQMAQVGDGDNSPLMNNFRQYLPSLPQSVECRPFVFSAGKPYEFSIDCDKINLFRGVFAFLLYVATFMYVFSTFANILRNKES
notes: Assayed as M13 phage clone displaying the insert
[1]
  OD: 0.15 OD
[2]
  PEPT1/BSA: 4 ratio

B2: DCX8 (peptide)
peptide: RYKHDIGCDAGVDKKSSSVRGGCGAHSSPPRAGRGPRGTMVSRLAETVESCLAKPHTENSFTNVWKDDKTLDRYANYEGCLWNATGVVVCTGDETQCYGTWVPIGLAIPENEGGGSEGGGSEGGGSEGGGTKPPEYGDTPIPGYTYINPLDGTYPPGTEQNPANPNPSLEESQPLNTFMFQNNRFRNRQGALTVYTGTVTQGTDPVKTYYQYTPVSSKAMYDAYWNGKFRDCAFHSGFNEDPFVCEYQGQSSDLPQPPVNAGGGSGGGSGGGSEGGGSEGGGSEGGGSEGGGSGGGSGSGDFDYEKMANANKGAMTENADENALQSDAKGKLDSVATDYGAAIDGFIGDVSGLANGNGATGDFAGSNSQMAQVGDGDNSPLMNNFRQYLPSLPQSVECRPFVFSAGKPYEFSIDCDKINLFRGVFAFLLYVATFMYVFSTFANILRNKES
notes: as for B1
[3]
  OD: 0.163 OD
[4]
  D2H/BSA: 3 ratio

B3: DAX23 (peptide)
peptide: REWRFAGPPLDLWAGPSLPSFNASSHPRALRTYWSQRPRAETVESCLAKPHTENSFTNVWKDDKTLDRYANYEGCLWNATGVVVCTGDETQCYGTWVPIGLAIPENEGGGSEGGGSEGGGSEGGGTKPPEYGDTPIPGYTYINPLDGTYPPGTEQNPANPNPSLEESQPLNTFMFQNNRFRNRQGALTVYTGTVTQGTDPVKTYYQYTPVSSKAMYDAYWNGKFRDCAFHSGFNEDPFVCEYQGQSSDLPQPPVNAGGGSGGGSGGGSEGGGSEGGGSEGGGSEGGGSGGGSGSGDFDYEKMANANKGAMTENADENALQSDAKGKLDSVATDYGAAIDGFIGDVSGLANGNGATGDFAGSNSQMAQVGDGDNSPLMNNFRQYLPSLPQSVECRPFVFSAGKPYEFSIDCDKINLFRGVFAFLLYVATFMYVFSTFANILRNKES
notes: as for B1
[5]
  D2H/BSA: 5 ratio
[6]
  OD: 0.698 OD

B4: HAX9 (peptide)
peptide: SREEANWDGYKREMSHRSRFWDATHLSRPRRPANSGDPNAETVESCLAKPHTENSFTNVWKDDKTLDRYANYEGCLWNATGVVVCTGDETQCYGTWVPIGLAIPENEGGGSEGGGSEGGGSEGGGTKPPEYGDTPIPGYTYINPLDGTYPPGTEQNPANPNPSLEESQPLNTFMFQNNRFRNRQGALTVYTGTVTQGTDPVKTYYQYTPVSSKAMYDAYWNGKFRDCAFHSGFNEDPFVCEYQGQSSDLPQPPVNAGGGSGGGSGGGSEGGGSEGGGSEGGGSEGGGSGGGSGSGDFDYEKMANANKGAMTENADENALQSDAKGKLDSVATDYGAAIDGFIGDVSGLANGNGATGDFAGSNSQMAQVGDGDNSPLMNNFRQYLPSLPQSVECRPFVFSAGKPYEFSIDCDKINLFRGVFAFLLYVATFMYVFSTFANILRNKES
notes: as for B1
[7]
  OD: 0.382 OD
[8]
  HPT/BSA: 5 ratio

B5: P90 (peptide)
peptide: SSADAEKCAGSLLWWGRQNNSGCGSPTKKHLKHRNRSQTSSSSHAETVESCLAKPHTENSFTNVWKDDKTLDRYANYEGCLWNATGVVVCTGDETQCYGTWVPIGLAIPENEGGGSEGGGSEGGGSEGGGTKPPEYGDTPIPGYTYINPLDGTYPPGTEQNPANPNPSLEESQPLNTFMFQNNRFRNRQGALTVYTGTVTQGTDPVKTYYQYTPVSSKAMYDAYWNGKFRDCAFHSGFNEDPFVCEYQGQSSDLPQPPVNAGGGSGGGSGGGSEGGGSEGGGSEGGGSEGGGSGGGSGSGDFDYEKMANANKGAMTENADENALQSDAKGKLDSVATDYGAAIDGFIGDVSGLANGNGATGDFAGSNSQMAQVGDGDNSPLMNNFRQYLPSLPQSVECRPFVFSAGKPYEFSIDCDKINLFRGVFAFLLYVATFMYVFSTFANILRNKES
notes: as for B1
[1]
  OD: 1.12 OD
[2]
  PEPT1/BSA: 9 ratio

B6: DAB10 (peptide)
peptide: SKSGEGGDSSRGETGWARVRSHAMTAGRFRWYNQLPSDRAETVESCLAKPHTENSFTNVWKDDKTLDRYANYEGCLWNATGVVVCTGDETQCYGTWVPIGLAIPENEGGGSEGGGSEGGGSEGGGTKPPEYGDTPIPGYTYINPLDGTYPPGTEQNPANPNPSLEESQPLNTFMFQNNRFRNRQGALTVYTGTVTQGTDPVKTYYQYTPVSSKAMYDAYWNGKFRDCAFHSGFNEDPFVCEYQGQSSDLPQPPVNAGGGSGGGSGGGSEGGGSEGGGSEGGGSEGGGSGGGSGSGDFDYEKMANANKGAMTENADENALQSDAKGKLDSVATDYGAAIDGFIGDVSGLANGNGATGDFAGSNSQMAQVGDGDNSPLMNNFRQYLPSLPQSVECRPFVFSAGKPYEFSIDCDKINLFRGVFAFLLYVATFMYVFSTFANILRNKES
notes: as for B1
[5]
  D2H/BSA: 4 ratio
[6]
  OD: 0.644 OD

B7: HAX42 (peptide)
peptide: SDHALGTNLRSDNAKEPGDYNCCGNGNSTGRKVFNRRRPSAIPTAETVESCLAKPHTENSFTNVWKDDKTLDRYANYEGCLWNATGVVVCTGDETQCYGTWVPIGLAIPENEGGGSEGGGSEGGGSEGGGTKPPEYGDTPIPGYTYINPLDGTYPPGTEQNPANPNPSLEESQPLNTFMFQNNRFRNRQGALTVYTGTVTQGTDPVKTYYQYTPVSSKAMYDAYWNGKFRDCAFHSGFNEDPFVCEYQGQSSDLPQPPVNAGGGSGGGSGGGSEGGGSEGGGSEGGGSEGGGSGGGSGSGDFDYEKMANANKGAMTENADENALQSDAKGKLDSVATDYGAAIDGFIGDVSGLANGNGATGDFAGSNSQMAQVGDGDNSPLMNNFRQYLPSLPQSVECRPFVFSAGKPYEFSIDCDKINLFRGVFAFLLYVATFMYVFSTFANILRNKES
notes: as for B1
[7]
  OD: 0.32 OD
[8]
  HPT/BSA: 5 ratio

B8: HAX40 (peptide)
peptide: REFAERRLWGCDDLSWRLDAEGCGPTPSNRAVKHRKPRPRSPALAETVESCLAKPHTENSFTNVWKDDKTLDRYANYEGCLWNATGVVVCTGDETQCYGTWVPIGLAIPENEGGGSEGGGSEGGGSEGGGTKPPEYGDTPIPGYTYINPLDGTYPPGTEQNPANPNPSLEESQPLNTFMFQNNRFRNRQGALTVYTGTVTQGTDPVKTYYQYTPVSSKAMYDAYWNGKFRDCAFHSGFNEDPFVCEYQGQSSDLPQPPVNAGGGSGGGSGGGSEGGGSEGGGSEGGGSEGGGSGGGSGSGDFDYEKMANANKGAMTENADENALQSDAKGKLDSVATDYGAAIDGFIGDVSGLANGNGATGDFAGSNSQMAQVGDGDNSPLMNNFRQYLPSLPQSVECRPFVFSAGKPYEFSIDCDKINLFRGVFAFLLYVATFMYVFSTFANILRNKES
notes: Assayed as M13 phage clone displaying the insert; also called H44
[7]
  OD: 0.991 OD
[8]
  HPT/BSA: 15 ratio
